Test results from publication PMC2716658 (Nature structural & molecular biology, 2009).

B1: WAVE1 (subunit of the recombinant human WRC) (natural protein)
chain: MPLVKRNIDPRHLCHTALPRGIKNELECVTNISLANIIRQLSSLSKYAEDIFGELFNEAHSFSFRVNSLQERVDRLSVSVTQLDPKEEELSLQDITMRKAFRSSTIQDQQLFDRKTLPIPLQETYDVCEQPPPLNILTPYRDDGKEGLKFYTNPSYFFDLWKEKMLQDTEDKRKEKRKQKQKNLDRPHEPEKVPRAPHDRRREWQKLAQGPELAEDDANLLHKHIEVANGPASHFETRPQTYVDHMDGSYSLSALPFSQMSELLTRAEERVLVRPHEPPPPPPMHGAGDAKPIPTCISSATGLIENRPQSPATGRTPVFVSPTPPPPPPPLPSALSTSSLRASMTSTPPPPVPPPPPPPATALQAPAVPPPPAPLQIAPGVLHPAPPPIAPPLVQPSPPVARAAPVCETVPVHPLPQGEVQGLPPPPPPPPLPPPGIRPSSPVTVTALAHPPSGLHPTPSTAPGPHVPLMPPSPPSQVIPASEPKRHPSTLPVISDARSVLLEAIRKGIQLRKVEEQREQEAKHERIENDVATILSRRIAVEYSDSEDDSEFDEVDWLE
B2: Sra1 (natural protein)
chain: MAAQVTLEDALSNVDLLEELPLPDQQPCIEPPPSSLLYQPNFNTNFEDRNAFVTGIARYIEQATVHSSMNEMLEEGQEYAVMLYTWRSCSRAIPQVKCNEQPNRVEIYEKTVEVLEPEVTKLMNFMYFQRNAIERFCGEVRRLCHAERRKDFVSEAYLITLGKFINMFAVLDELKNMKCSVKNDHSAYKRAAQFLRKMADPQSIQESQNLSMFLANHNKITQSLQQQLEVISGYEELLADIVNLCVDYYENRMYLTPSEKHMLLKVMGFGLYLMDGSVSNIYKLDAKKRINLSKIDKYFKQLQVVPLFGDMQIELARYIKTSAHYEENKSRWTCTSSGSSPQYNICEQMIQIREDHMRFISELARYSNSEVVTGSGRQEAQKTDAEYRKLFDLALQGLQLLSQWSAHVMEVYSWKLVHPTDKYSNKDCPDSAEEYERATRYNYTSEEKFALVEVIAMIKGLQVLMGRMESVFNHAIRHTVYAALQDFSQVTLREPLRQAIKKKKNVIQSVLQAIRKTVCDWETGHEPFNDPALRGEKDPKSGFDIKVPRRAVGPSSTQLYMVRTMLESLIADKSGSKKTLRSSLEGPTILDIEKFHRESFFYTHLINFSETLQQCCDLSQLWFREFFLELTMGRRIQFPIEMSMPWILTDHILETKEASMMEYVLYSLDLYNDSAHYALTRFNKQFLYDEIEAEVNLCFDQFVYKLADQIFAYYKVMAGSLLLDKRLRSECKNQGATIHLPPSNRYETLLKQRHVQLLGRSIDLNRLITQRVSAAMYKSLELAIGRFESEDLTSIVELDGLLEINRMTHKLLSRYLTLDGFDAMFREANHNVSAPYGRITLHVFWELNYDFLPNYCYNGSTNRFVRTVLPFSQEFQRDKQPNAQPQYLHGSKALNLAYSSIYGSYRNFVGPPHFQVICRLLGYQGIAVVMEELLKVVKSLLQGTILQYVKTLMEVMPKICRLPRHEYGSPGILEFFHHQLKDIVEYAELKTVCFQNLREVGNAILFCLLIEQSLSLEEVCDLLHAAPFQNILPRVHVKEGERLDAKMKRLESKYAPLHLVPLIERLGTPQQIAIAREGDLLTKERLCCGLSMFEVILTRIRSFLDDPIWRGPLPSNGVMHVDECVEFHRLWSAMQFVYCIPVGTHEFTVEQCFGDGLHWAGCMIIVLLGQQRRFAVLDFCYHLLKVQKHDGKDEIIKNVPLKKMVERIRKFQILNDEIITILDKYLKSGDGEGTPVEHVRCFQPPIHQSLASS

Legend:
[1] = biological target: B1; experiment: AUC
Sra1 = biological target: B2; experiment: co-expression and purification of the complex

stoichiometry N [1] | binding result (Sra1) | Binder
1 | – | Nap1 (natural protein) MSRSVLQPSQQKLAEKLTILNDRGVGMLTRLYNIKKACGDPKAKPSYLIDKNLESAVKFIVRKFPAVETRNNNQQLAQLQKEKSEILKNLALYYFTFVDVMEFKDHVCELLNTIDVCQVFFDITVNFDLTKNYLDLIITYTTLMILLSRIEERKAIIGLYNYAHEMTHGASDREYPRLGQMIVDYENPLKKMMEEFVPHSKSLSDALISLQMVYPRRNLSADQWRNAQLLSLISAPSTMLNPAQSDTMPCEYLSLDAMEKWIIFGFILCHGILNTDATALNLWKLALQSSSCLSLFRDEVFHIHKAAEDLFVNIRGYNKRINDIRECKEAAVSHAGSMHRERRKFLRSALKELATVLSDQPGLLGPKALFVFMALSFARDEIIWLLRHADNMPKKSADDFIDKHIAELIFYMEELRAHVRKYGPVMQRYYVQYLSGFDAVVLNELVQNLSVCPEDESIIMSSFVNTMTSLSVKQVEDGEVFDFRGMRLDWFRLQAYTSVSKASLGLADHRELGKMMNTIIFHTKMVDSLVEMLVETSDLSIFCFYSRAFEKMFQQCLELPSQSRYSIAFPLLCTHFMSCTHELCPEERHHIGDRSLSLCNMFLDEMAKQARNLITDICTEQCTLSDQLLPKHCAKTISQAVNKKSKKQTGKKGEPEREKPGVESMRKNRLVVTNLDKLHTALSELCFSINYVPNMVVWEHTFTPREYLTSHLEIRFTKSIVGMTMYNQATQEIAKPSELLTSVRAYMTVLQSIENYVQIDITRVFNNVLLQQTQHLDSHGEPTITSLYTNWYLETLLRQVSNGHIAYFPAMKAFVNLPTENELTFNAEEYSDISEMRSLSELLGPYGMKFLSESLMWHISSQVAELKKLVVENVDVLTQMRTSFDKPDQMAALFKRLSSVDSVLKRMTIIGVILSFRSLAQEALRDVLSYHIPFLVSSIEDFKDHIPRETDMKVAMNVYELSSAAGLPCEIDPALVVALSSQKSENISPEEEYKIACLLMVFVAVSLPTLASNVMSQYSPAIEGHCNNIHCLAKAINQIAAALFTIHKGSIEDRLKEFLALASSSLLKIGQETDKTTTRNRESVYLLLDMIVQESPFLTMDLLESCFPYVLLRNAYHAVYKQSVTSSA
1 | – | Abi2 (subunit of the recombinant human WRC) (natural protein) MAELQMLLEEEIPGGRRALFDSYTNLERVADYCENNYIQSADKQRALEETKAYTTQSLASVAYLINTLANNVLQMLDIQASQLRRMESSINHISQTVDIHKEKVARREIGILTTNKNTSRTHKIIAPANLERPVRYIRKPIDYTILDDIGHGVKWLLRFKVSTQNMKMGGLPRTTPPTQKPPSPPMSGKGTLGRHSPYRTLEPVRPPVVPNDYVPSPTRNMAPSQQSPVRTASVNQRNRTYSSSGSSGGSHPSSRSSSRENSGSGSVGVPIAVPTPSPPSVFPAPAGSAGTPPLPATSASAPAPLVPATVPSSTAPNAAAGGAPNLADGFTSPTPPVVSSTPPTGHPVQFYSMNRPASRHTPPTIGGSLPYRRPPSITSQTSLQNQMNGGPFYSQNPVSDTPPPPPPVEEPVFDESPPPPPPPEDYEEEEAAVVEYSDPYAEEDPPWAPRSYLEKVVAIYDYTKDKEDELSFQEGAIIYVIKKNDDGWYEGVMNGVTGLFPGNYVESIMHYSE
– | binds | B1
1 | – | HSPC300 (natural protein) MAGQEDPVQREIHQDWANREYIEIITSSIKKIADFLNSFDMSCRSRLATLNEKLTALERRIEYIEARVTKGETLT
1 | – | B2
